The values that follow are results of earlier work, collected in publication PMC4351059.

This data set has as its target Cys215 (UniProt position 215, PVVVHCSAGIG). Conditions: not stated (reduced free enzyme implied).

For orientation: pKa means the negative logarithm of the acid dissociation constant. For “Protein-tyrosine phosphatase 1B (PTP1B) (Homo sapiens (as described in this article; the cited source title says 'mammalian protein-tyrosine-phosphatase PTP1'))”, the pKa was 5.6.
